Data: the supplement of paper PMC10724198
± gives the standard deviation of the averaged measurements.

test system: Saccharomyces cerevisiae; experiment: protein stability index of tFT-peptide fusion (C-terminal peptide) (PSI (0-1 scale)); higher = more stable (slower turnover); settings: genetic background: wild type; temperature: 30 C
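Also: PSI is a weighted mean of sequencing reads over stability bins, variants kept only with over 10 reads, mCherry proximal and sfGFP distal, peptide attached via GGGS linker.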

| Sequence | protein stability index |
| --- | --- |
| RPPGPPPPAPFP | 0.711 ± 0.015 |
| RPPHQAPPLPPS | 0.704 ± 0.062 |
| RPPHRRRDKKVS | 0.701 ± 0.031 |
| RPPPPPHRTGDC | 0.607 ± 0.02 |
| RPPPPPPPRFPP | 0.706 ± 0.041 |
| RPPPRPASPGSP | 0.634 ± 0.039 |
| RPQHSPSVLVSY | 0.5884 ± 0.005 |
| RPRSPRSLPPPP | 0.541 ± 0.043 |
| RPRVAVPHTSLP | 0.714 ± 0.069 |
| RPSPSLPSPSPP | 0.843 ± 0.081 |
| RPTRPCSTPTAP | 0.78 ± 0.012 |
| RPYLARQTTAPS | 0.6575 ± 0.0033 |
| RQAIGRDTPRDP | 0.649 ± 0.0073 |
| RQGHKRVKISGM | 0.599 ± 0.091 |
| RQKTKRKDQKIK | 0.709 ± 0.023 |
| RQSSPPPRIAPT | 0.6783 ± 0.0057 |
| RRATCYGLGPTM | 0.681 ± 0.013 |
| RRERKARREAPR | 0.682 ± 0.042 |
| RRESTRSRWYEG | 0.762 ± 0.14 |
| RRGAVGAAGLKG | 0.68884 ± 7e-05 |
| RRGEVTQTCGCE | 0.549 ± 0.054 |
| RRGKGERSQFAP | 0.647 ± 0.017 |
| RRLNTRQERSNK | 0.72 ± 0.032 |

| Sequence | protein stability index |
| --- | --- |
| RRLRCNDCPFVV | 0.755 ± 0.085 |
| RRLSGGNLLLLA | 0.5914 ± 0.0018 |
| RRLVLPFSRLLR | 0.656 ± 0.019 |
| RRNGVVGRLGGV | 0.678 ± 0.032 |
| RRNLSVSKRKWP | 0.689 ± 0.014 |
| RRPPVFCIPLFS | 0.639 ± 0.015 |
| RRPSRLLGPERI | 0.717 ± 0.025 |
| RRPTKGGPPTLC | 0.67 ± 0.032 |
| RRQWVLEQEGGT | 0.732 ± 0.056 |
| RRRAINIPNNRL | 0.712 ± 0.016 |
| RRRGRAEREPSS | 0.689 ± 0.05 |
| RRRGSLGGVRGN | 0.707 ± 0.058 |
| RRRSGGVIWNRV | 0.669 ± 0.009 |
| RRRTTTNFKVGH | 0.672 ± 0.014 |
| RRRVTVYAPVDS | 0.713 ± 0.015 |
| RRRVWIQQRRKI | 0.5481 ± 0.0053 |
| RRSLSPPRPRYM | 0.7 ± 0.018 |
| RRSTRAGWPGNW | 0.5 ± 0.1 |
| RRTEHPRTRAAR | 0.692 ± 0.045 |
| RRTGGEDKHARP | 0.67 ± 0.02 |
| RRWCVDLAMSFA | 0.646 ± 0.016 |
| RSCGKAYNLLPL | 0.683 ± 0.052 |
| RSDEGHDVLCLY | 0.615 ± 0.083 |

| Sequence | protein stability index |
| --- | --- |
| RSFVEQQCVTYA | 0.628 ± 0.11 |
| RSGCGVVGVWEE | 0.668 ± 0.032 |
| RSGGGVARRSYR | 0.662 ± 0.013 |
| RSGISFGIWVCF | 0.586 ± 0.048 |
| RSGLVRSLPLLL | 0.664 ± 0.069 |
| RSGVRWGGGGGG | 0.711 ± 0.035 |
| RSGWSYRDRGPS | 0.651 ± 0.082 |
| RSICTEGLDIGC | 0.659 ± 0.033 |
| RSLGLGGRGFWG | 0.715 ± 0.099 |
| RSLPPGFPSTLL | 0.652 ± 0.014 |
| RSMSQKSRIVSF | 0.67 ± 0.14 |
| RSNVGCDLKQTC | 0.6556 ± 0.0027 |
| RSPPAVSLVTIP | 0.6911 ± 0.0052 |
| RSPPLTPPPCPS | 0.6931 ± 0.005 |
| RSPQPPPSPSSG | 0.692 ± 0.027 |
| RSQICWFFFQCI | 0.53 ± 0.036 |
| RSRNAHAPPLAG | 0.764 ± 0.065 |
| RSRPPVHVAAAL | 0.673 ± 0.074 |
| RSTFSGSSTLVY | 0.568 ± 0.0084 |
| RSTIEHILLFFI | 0.668 ± 0.015 |
| RSVGMFSCRPVW | 0.698 ± 0.017 |
| RSWSSIASSSTM | 0.7285 ± 0.0037 |
| RTAKTSARATTL | 0.705 ± 0.039 |

| Sequence | protein stability index |
| --- | --- |
| RTCRYRRVPAET | 0.729 ± 0.066 |
| RTEATFKTTPVG | 0.687 ± 0.013 |
| RTGTIPAPFHHE | 0.675 ± 0.0074 |
| RTHIKEYKNNKI | 0.647 ± 0.035 |
| RTNGNIKNVNIE | 0.684 ± 0.07 |
| RTNNIAKNSKNR | 0.713 ± 0.058 |
| RTPQPQPVVVRR | 0.776 ± 0.041 |
| RTPQSPRVSVRN | 0.6586 ± 0.0027 |
| RTSKSLSKVESW | 0.6415 ± 0.0031 |
| RTTERLTRWEFG | 0.686 ± 0.03 |
| RTVRRNPHGRPR | 0.6832 ± 0.005 |
| RTWLLRTVFPRL | 0.704 ± 0.024 |
| RVAWAGGGAAGS | 0.667 ± 0.065 |
| RVEIKNKKKIRT | 0.696 ± 0.083 |
| RVGGGGGPSGVV | 0.751 ± 0.029 |
| RVGGGGWPSGVV | 0.747 ± 0.047 |
| RVGGGSGGEGRG | 0.6553 ± 0.0043 |
| RVGLGGRPSGGW | 0.64 ± 0.047 |
| RVGLRGGCGSNG | 0.725 ± 0.029 |
| RVHRETLLPTGQ | 0.644 ± 0.036 |
| RVLIPLASSPPL | 0.77 ± 0.23 |
| RVLPASRFSFLF | 0.743 ± 0.036 |
| RVMGWWGARVLG | 0.697 ± 0.027 |

| Sequence | protein stability index |
| --- | --- |
| RVNTFHANKWRW | 0.7134 ± 0.0013 |
| RVPLSPSLRYFV | 0.653 ± 0.026 |
| RVPNLYLRSRKI | 0.68 ± 0.034 |
| RVQELEDGCAAE | 0.658 ± 0.024 |
| RVRGGAGRGKRE | 0.686 ± 0.032 |
| RVRLAPAPASIR | 0.7458 ± 0.0047 |
| RVRVGGPRESGQ | 0.7054 ± 0.00082 |
| RVSVYTFVSLSN | 0.619 ± 0.035 |
| RVSYLLPFCSSV | 0.762 ± 0.11 |
| RVVYANSRVSDN | 0.6479 ± 0.0055 |
| RVWVGGPRESGQ | 0.72118 ± 0.00022 |
| RVYGSFFYVSLL | 0.66 ± 0.13 |
| RWCVGFRLCHDS | 0.636 ± 0.019 |
| RWGPGRSGSRGA | 0.652 ± 0.022 |
| RWGWGGYRGGVP | 0.7572 ± 0.0061 |
| RWLGNPLLQRYH | 0.567 ± 0.043 |
| RWLWRLDNRIVI | 0.62081 ± 4.7e-05 |
| RYCSLARSCPSG | 0.678 ± 0.027 |
| RYGTGQLDYCFI | 0.717 ± 0.018 |
| RYHQFSFQSNKS | 0.764 ± 0.072 |
| RYKISKKERIKK | 0.663 ± 0.072 |
| RYKTESKRDIEK | 0.696 ± 0.062 |
| RYLFAAVSFGYA | 0.726 ± 0.032 |

| Sequence | protein stability index |
| --- | --- |
| RYLTLVTNLLCP | 0.647 ± 0.0024 |
| RYPLRPLLLPPP | 0.741 ± 0.16 |
| RYRDSKPDIVDC | 0.723 ± 0.038 |
| RYSPPPPPIPSP | 0.715 ± 0.0022 |
| RYTQQTTATYHN | 0.749 ± 0.079 |
| RYTTCPVLNPGV | 0.618 ± 0.018 |
| RYWCATHIGACL | 0.788 ± 0.093 |
| SAFGGAGVLGHR | 0.6799 ± 0.0027 |
| SAIAVDSPLGRG | 0.653 ± 0.023 |
| SALGPVLCRGSY | 0.675 ± 0.067 |
| SALSLDNLIHSY | 0.676 ± 0.071 |
| SAPALPCQSPRL | 0.696 ± 0.011 |
| SAPCHAHHLPYQ | 0.73 ± 0.026 |
| SAPPLFPCPSPA | 0.68 ± 0.03 |
| SARPTVNRPARN | 0.6933 ± 0.0049 |
| SARVVCSSCFPM | 0.668 ± 0.017 |
| SAVLLLNAGGLV | 0.688 ± 0.0071 |
| SAVVPACIPKCE | 0.694 ± 0.035 |
| SAWHRGCSCHLC | 0.682 ± 0.029 |
| SAWVGVGHGRVS | 0.6113 ± 0.0056 |
| SAYQDFTAILLG | 0.703 ± 0.16 |
| SCGVTRVGALST | 0.664 ± 0.013 |
| SCGYRGSSAFSF | 0.62 ± 0.2 |

| Sequence | protein stability index |
| --- | --- |
| SCIRATGSNVSP | 0.664 ± 0.029 |
| SCKLSPLGLLLL | 0.618 ± 0.016 |
| SCLGGRISSRCG | 0.69 ± 0.017 |
| SCPSLPPPPPCL | 0.735 ± 0.04 |
| SCQISVRLHVSH | 0.612 ± 0.016 |
| SCQSPSSQEYST | 0.751 ± 0.056 |
| SCRKGLSPRPPS | 0.7 ± 0.007 |
| SCSFPPSPFLCG | 0.677 ± 0.03 |
| SCSLGIRSFFSL | 0.7 ± 0.021 |
| SCTRASSMSLSP | 0.674 ± 0.024 |
| SCVAGSSHWTSI | 0.712 ± 0.24 |
| SCVTLTGLSGDK | 0.698 ± 0.016 |
| SCWHRNRKIILD | 0.573 ± 0.056 |
| SDFGSFRFRSIV | 0.5773 ± 0.0018 |
| SDKVLSSTEIQN | 0.719 ± 0.039 |
| SDNIKIPKEKRK | 0.668 ± 0.026 |
| SEGCASLSGRVG | 0.665 ± 0.047 |
| SEGCPILALVKP | 0.638 ± 0.035 |
| SEHSTYFSRNCF | 0.726 ± 0.032 |
| SEIFTNALLISI | 0.651 ± 0.026 |
| SEIKVIMNESKS | 0.679 ± 0.009 |
| SEIRIQTFETGG | 0.671 ± 0.061 |
